Results from publication doi:10.1101/2025.09.29.679115.

B1: WIND1 promoter probe (dsDNA)
DNA 1: AATCCCTCCCTAAACCTCTAGAGAGTTCTATTAATTTTTG
DNA 2: CAAAAATTAATAGAACTCTCTAGAGGTTTAGGGAGGGATT
B2: WIND1 unlabelled competitor (dsDNA)
DNA 1: B1 DNA 1
DNA 2: B1 DNA 2
B3: WIND1_m probe (dsDNA)
DNA 1: AATCCCTCCCTAAACCTCTATGGGACCTTATTAATTTTTG
DNA 2: CAAAAATTAATAAGGTCCCATAGAGGTTTAGGGAGGGATT
B4: ZAT6 promoter probe (dsDNA)
DNA 1: AATTCTTATCACTTAAGAATATTCTAGAGAGCTCTCACTT
DNA 2: AAGTGAGAGCTCTCTAGAATATTCTTAAGTGATAAGAATT

Assays:
MBP-HSFA1d [1] = target: T1, MBP-HSFA1d (Arabidopsis thaliana, UniProt Q9LQM7 1-485); assay: EMSA
T1 sequence (Q9LQM7 whole entry): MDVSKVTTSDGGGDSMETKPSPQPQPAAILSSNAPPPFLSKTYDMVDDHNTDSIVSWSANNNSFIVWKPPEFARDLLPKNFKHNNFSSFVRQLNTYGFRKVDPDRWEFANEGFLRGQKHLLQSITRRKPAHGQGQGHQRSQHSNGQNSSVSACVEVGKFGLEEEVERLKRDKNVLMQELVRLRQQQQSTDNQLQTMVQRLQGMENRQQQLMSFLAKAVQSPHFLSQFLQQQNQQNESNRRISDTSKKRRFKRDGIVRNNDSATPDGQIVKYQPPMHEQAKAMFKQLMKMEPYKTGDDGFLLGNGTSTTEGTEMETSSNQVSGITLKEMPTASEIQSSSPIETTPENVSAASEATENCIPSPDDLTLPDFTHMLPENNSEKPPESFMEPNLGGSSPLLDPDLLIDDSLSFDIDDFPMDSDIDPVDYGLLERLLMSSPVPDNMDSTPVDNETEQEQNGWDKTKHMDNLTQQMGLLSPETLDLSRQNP

MBP-HSFA1d [2] = target: T1, MBP-HSFA1d; assay: competition

Row | Binder | binding result (MBP-HSFA1d [1]) | binding result (MBP-HSFA1d [2])
1 | B1 | binds | 
2 | B2 |  | binds
3 | B3 | no binding | 
4 | B4 | binds | 
